Key:
purified protein [1] = substrate: O=C1C[C@@H](c2ccc(O)cc2)Oc2cc(O)cc(O)c21; assay: purified protein; details: CYP:Pdx:PdR 1:8:2 (P. putida redox partners; CYP 1 µM), 500 µM NADH, phosphate buffer; 3'-hydroxylation
purified protein [2] = substrate: O=c1cc(-c2ccc(O)cc2)oc2cc(O)cc(O)c12; assay: purified protein; details: CYP:Pdx:PdR 1:8:2 (P. putida redox partners; CYP 1 µM), 500 µM NADH, phosphate buffer; 3'-hydroxylation

B1: CYP101D5 (Sphingomonas echinoides) (protein)
chain: MSAAEEIHTPRPAHVPADRVVELDMYNPQGIEKGYLEAWTSLQTADLPSMVWTPLNGGHWIATRGELIQDIYCDPDHFSSHVIFIPKAAGEKYAMVPSKMDPPEHRPYREVVDKGLNLRAIREREPAVRAHAIALIEAFADKGHCDFVEEFSGEFPIRVFMMMADLPMEDSPKLRAFAAGMTRPEGNTPTEMADALDRANRSFFDYVSPIIDARMGGDGTDILTLSINSQVNGAPMEREKLLGMVSLLLLAGLDTVTNFLNMTMDYLGRHPDKVRELTENPTEIRRGVEELFRRFPLVAAARMVAHDVERDGVELKQGEMVLLPTALHGLDPRVNADPWEVDFQRKRPAHSTFGNGPHRCAGLHLARLETTVMLEEWLKRIPTFRVVPGTGPTYHSGVVASVDGVRLEW
Purified protein [1]
  Km: 26.39 ± 2.23 µM
  kcat: 0.0195 s⁻¹
Purified protein [2]
  Km: 46.28 ± 4.88 µM
  kcat: 0.0138 s⁻¹

Source: article PMC9655578
